Measured values published in patent publication US20240349732A1 (IMPETUS AGRICULTURE, published 2024).

Key:
[1] = target: T1, tagless FAW Cadherin antigen (Spodoptera frugiperda); test: screen of colonies after 3 rounds of phage panning on solid-phase coated tagless FAW Cadherin antigen
T1 construct: the batch used for panning is called tagless; also called Sp.f Cadherin
T1 chain: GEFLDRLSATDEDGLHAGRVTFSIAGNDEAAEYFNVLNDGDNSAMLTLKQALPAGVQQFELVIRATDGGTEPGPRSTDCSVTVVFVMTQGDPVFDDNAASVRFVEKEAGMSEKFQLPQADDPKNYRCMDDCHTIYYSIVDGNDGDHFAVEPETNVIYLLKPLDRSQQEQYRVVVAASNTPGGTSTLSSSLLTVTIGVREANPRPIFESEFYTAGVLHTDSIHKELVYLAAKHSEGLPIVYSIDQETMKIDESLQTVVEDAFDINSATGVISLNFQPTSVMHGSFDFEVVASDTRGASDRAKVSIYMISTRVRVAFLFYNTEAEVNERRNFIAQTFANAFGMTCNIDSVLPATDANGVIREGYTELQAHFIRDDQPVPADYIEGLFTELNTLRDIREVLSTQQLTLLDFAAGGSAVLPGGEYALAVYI

[2] = target: T2, 57NAAT1like (second extracellular loop of Spodoptera frugiperda sodium-dependent nutrient amino acid … (Spodoptera frugiperda)); test: ELISA of periplasmic extracts on passively coated non-biotinylated 57NAAT1like
T2 construct: 57 aa antigen; also called NAAT antigen
T2 chain: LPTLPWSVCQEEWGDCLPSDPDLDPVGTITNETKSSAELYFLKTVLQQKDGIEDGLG

B1: Cadherin monospecific nanobody #2 (VHH)
VHH: QVQLQESGGGLVQAGASLRLSCAASRRTGSSLTMGWFRQAPGKEREFVAAISRSGIRTYYADFVKGRFTISRDNAKNTLYLQMNSLKPEDTAVYYCAANDKTYGSGLDVYTRRQNYYYWGPGTQVTVSS
notes: Llama VHH; also called Cad2
B1: binds [1].

B2: Cadherin monospecific nanobody #48 (VHH)
VHH: QVQLQESGGGLVQAGASLRLSCAASRRTGSSLTMGWFRQAPGREREFVAAISRSGIRTYYADFVKGRFTISRDNAKNTLYLQMNSLKPEDTAVYYCAANDKTYGSGLDVYTRRQDYYYWGPGTQVTVSS
notes: Llama VHH; also called Cad48
B2: binds [1].

B3: Cadherin monospecific nanobody #43 (VHH)
VHH: QVQLQESGGGLAQAGASLRLSCAASRRTGSSLTMGWFRQAPGKEREFVAAISRSGIRTYYADFVKGRFTISRDNAKNTLYLQMNSLKPEDTAVYYCAANDKTYGSGLDVYTRRQDYYYWGPGTQVTVSS
notes: Llama VHH; also called Cad43
B3: binds [1].

B4: NAAT monospecific nanobody #2 (VHH)
VHH: QVQLQESGGGVVQTGGSLTLSCKASRRTSGFAMAWFRQAPGMEREFVAGIGRTGDNIHYLDSVKGRFTISRDNTKNTLSLQMNSLRPGDTAVYYCAADVTKSGFIYWGQGTQVTVSS
notes: Llama VHH; also called NAAT2
B4: binds [2].

B5: Cadherin monospecific nanobody #46 (VHH)
VHH: QVQLQESGGGSVQAGGSLKLSCAASGTESIFIVMGWYRQAPGKERELVAAMSFGGGTNVTDGVRGRFTISRDFDKNTVDLQMNNLKTEDTAVYYCNAVQWGPRDYWGQGTQVTVSS
notes: Llama VHH; also called Cad46
B5: binds [1].

B6: NAAT monospecific nanobody #5 (VHH)
VHH: QVQLQESGGGLVQPGGSLRLACVLSGGPSSSYGVGWFRQRSGTEREFVAAISGSGRTIHYVDDVKGRFAISRDSAKNAVDLQMNNLKPEDTAVYYCAALALVTTHPTSNVGEWDYWGQGTQVTVSS
notes: Llama VHH; also called NAAT5
B6: binds [2].

B7: NAAT monospecific nanobody #6 (VHH)
VHH: QVQLQESGGGVVQTGGSLTLSCKASRRTSGFAMAWFRQAPGMEREFVAGIGRTGDNIHYLDSVKGRFTISRDNTKNTLSLQMNSLKSEDTAVYYCAKVVVVAGSPSFDAWGQGTQVTVSS
notes: Llama VHH; also called NAAT6
B7: binds [2].

B8: NAAT monospecific nanobody #1 (VHH)
VHH: QVQLQESGGGLVQAGGSLRLSCAASGRTFSRYAMGWFRQALGKEREFVAGINWSGSMTYYADSVKGRFTISRDNAKNMLYLQMNSLKSEDTAVYYCAGVTVVGGAPAFDYWGQGTQVTVSS
notes: Llama VHH; also called NAAT1
B8: binds [2].

B9: NAAT monospecific nanobody #10 (VHH)
VHH: QVQLQESGGGLVQAGGSLTLSCAFSGRTFTHYAMAWFRQAPGKERKFVAGVTRSGPNTYYDDSVQGRFTISRDNAKNTVYLHMNSLKPEDTAVYYCAANSGVVSGYDYWGQGTQVTVSS
notes: Llama VHH; also called NAAT10
B9: binds [2].

B10: NAAT monospecific nanobody #29 (VHH)
VHH: QVQLQESGGGVVQTGGSLTLSCKASRRTSGFAMAWFRQAPGMEREFVAGIGRTGDNIHYLDSVKGRFTISRDNTKNTLSLQMNNLKPEDTAVYYCLRTMGGTWSEKGQGTQVTVSS
notes: Llama VHH; also called NAAT29
B10: binds [2].

B11: Cadherin monospecific nanobody #50 (VHH)
VHH: QVQLQESGGGLVQAGASLRLSCAASRRTGSSLTMGWFRQAPGKEREFVAAISRSGIRTYYADFVKGRFTISRDNGENTLYLQINSLKPEDTAVYYCAASSNPGYYRTAPNQYNFWGPGTQVTVSS
notes: Llama VHH; also called Cad50
B11: binds [1].
